Assay results as given in US20050123920A1.
Values belong to the substance of their own block, whether it stands above or below them.

Legend:
[1] = target: human Jade-1 protein (human); experiment: cell-based or functional assay
[2] = target: human Jade-1 protein (human); experiment: estimate based upon co-localization data (immunofluorescence)
[3] = target: FL-Jade-1 (tagged library clone, transfected) (human); experiment: co-immunoprecipitation of cotransfected proteins
HA-VHL = HA-VHL (UniProt P40337); experiment: co-immunoprecipitation of cotransfected proteins
Sequence of UniProt P40337 (P40337 whole entry): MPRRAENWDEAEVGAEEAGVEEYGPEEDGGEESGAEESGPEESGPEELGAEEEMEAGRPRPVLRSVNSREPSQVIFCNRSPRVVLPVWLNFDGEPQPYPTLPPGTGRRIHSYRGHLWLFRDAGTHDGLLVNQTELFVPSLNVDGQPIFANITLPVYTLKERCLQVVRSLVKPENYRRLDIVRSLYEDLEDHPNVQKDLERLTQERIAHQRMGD

endogenous Jade-1 protein half-life in VHL-plus 786-O renal cancer cells (~40 minutes in VHL-minus cells), metabolic labeling [1]: 60 min
half-life of Jade-1 transiently transfected with VHL (data not shown) [1]: 90 min
increase of Jade-1 protein half-life with cotransfected VHL in 293 cells, pulse-chase [1]: 2 fold
percent of VHL that associates with Jade-1 [2]: < 10%
Substance: von Hippel-Lindau (VHL) protein, wild-type human (from UniProt P40337 1-213)

percent of VHL in the cell lysate immunoprecipitable with Jade-1 (vice-versa) [3]: 30 to 40%
Substance: HA-VHL (from UniProt P40337 1-213)

percent of Jade-1 in the cell lysate immunoprecipitable with VHL (HA-VHL): 30 to 40%
Substance: FL-Jade-1 (tagged library clone, transfected)
